The text below walks through data of patent US20160032263A1.

Values joined by “and” are separate entries in the source; they are usually repeats but may differ in a detail not shown here. Equal entries are not always repeated.

This experiment deals with histidine-tagged HIV-1 integrase protein (IN) (HIV-1) (UniProt P04585). As to the kind of experiment: cell-based or functional assay.

On to “Rev 13-23 peptide (Rev-derived peptide, as used in the IN activity assay) (from UniProt P04618 13-23)”, for which the inhibition of IN enzymatic activity is 60 % inhibition and 70 % inhibition.

Take “Rev 53-67 peptide (Rev-derived peptide, as used in the IN activity assay) (from UniProt P04618 53-67)”: the inhibition of IN enzymatic activity is 60 % inhibition and 70 % inhibition.
